Data taken from the Immune Epitope Database (IEDB).

Assays:
HLA-B*44:03 = test: IEDB peptide-MHC binding, purified MHC/competitive/radioactivity; filed as Kd, often an IC50 or EC50 that approximates it; ≥ and ≤ were set here for values at or beyond the usual limits of such assays
HLA-B*44:02 = test: as above
HLA-A*23:01 = test: as above
HLA-A*24:02 = test: as above
HLA-A*30:02 = test: as above
HLA-A*26:01 = test: as above
HLA-A*01:01 [1] = test: as above
HLA-A*29:02 = test: as above
HLA-B*40:01 = test: as above
HLA-B*53:01 = test: as above
HLA-A*30:01 = test: as above; settings: source organism: Dengue virus 3 Martinique/1243/1999
HLA-B*58:01 = test: IEDB peptide-MHC binding, purified MHC/direct/fluorescence; filed as Kd, often an IC50 or EC50 that approximates it; ≥ and ≤ were set here for values at or beyond the usual limits of such assays; settings: source organism: SARS-CoV1
HLA-A*03:01 = test: as above; settings: source organism: SARS-CoV1
HLA-A*11:01 = test: as above; settings: source organism: SARS-CoV1
HLA-A*01:01 [2] = test: as above; settings: source organism: SARS-CoV1
[3] = source organism: Dengue virus 2 Jamaica/1409/1983
[4] = source organism: Dengue virus 1 Singapore/S275/1990
[5] = source organism: Mammarenavirus juninense
[6] = source organism: SARS coronavirus Tor2
[7] = source organism: Dengue virus 3 Martinique/1243/1999
[8] = source organism: Dengue virus 4 Philippines/H241/1956
[9] = source organism: Mammarenavirus guanaritoense
[10] = source organism: Dengue virus 1 Brazil/97-11/1997
[11] = source organism: Mammarenavirus whitewaterense
[12] = source organism: Lassa virus Josiah

## QEKGKSLLF
HLA-B*44:03; [3]
  Kd: 1140 nM
HLA-B*44:02; [3]
  Kd: 52.7 nM

## VYPLSIPATL
HLA-A*23:01; [4]
  Kd: 15.3 nM
HLA-A*24:02; [4]
  Kd: 111 nM

## LYIKDIFTR
HLA-A*30:02; [5]
  Kd: ≥ 76900 nM
HLA-A*26:01; [5]
  Kd: ≥ 77900 nM
HLA-A*01:01 [1]; [5]
  Kd: ≥ 78100 nM

## GLAAEWVLAY
HLA-A*29:02; [6]
  Kd: 69.4 nM
HLA-A*30:02; [6]
  Kd: 858 nM
HLA-A*23:01; [6]
  Kd: ≥ 70000 nM
HLA-A*26:01; [6]
  Kd: 363 nM
HLA-A*01:01 [1]; [6]
  Kd: 466 nM
HLA-A*24:02; [6]
  Kd: ≥ 70300 nM

## ESVKTQFNY
HLA-A*29:02; [6]
  Kd: 31.2 nM
HLA-A*30:02; [6]
  Kd: 505 nM
HLA-A*23:01; [6]
  Kd: ≥ 77800 nM
HLA-A*26:01; [6]
  Kd: 902 nM
HLA-A*01:01 [1]; [6]
  Kd: 2610 nM
HLA-A*24:02; [6]
  Kd: ≥ 77600 nM

## GESNIVIGI
HLA-B*40:01; [7]
  Kd: 2.36 nM
HLA-B*44:03; [7]
  Kd: 5.95 nM
HLA-B*44:02; [7]
  Kd: 10.8 nM

## STTEAILPEY
HLA-A*30:02; [7]
  Kd: ≥ 61200 nM
HLA-A*26:01; [7]
  Kd: 48 nM
HLA-A*01:01 [1]; [7]
  Kd: 232 nM

## HETGRLEPSW
HLA-B*44:03; [8]
  Kd: 188 nM
HLA-B*44:02; [8]
  Kd: ≥ 70200 nM

## LIGLTSRATW
HLA-B*53:01; [3]
  Kd: 459 nM

## GHHTNFESF
HLA-A*30:02; [9]
  Kd: 3830 nM
HLA-A*26:01; [9]
  Kd: ≥ 77900 nM

## PYLGKREDLW
HLA-A*23:01; [8]
  Kd: 505 nM
HLA-A*24:02; [8]
  Kd: 1620 nM

## RYNLDPDTI
HLA-A*29:02; [9]
  Kd: ≥ 40600 nM
HLA-A*23:01; [9]
  Kd: 6790 nM
HLA-A*24:02; [9]
  Kd: 2970 nM

## GEFRLRGEQR
HLA-B*40:01; [8]
  Kd: 1400 nM

## LWEGSPGKF
HLA-A*23:01; [10]
  Kd: 7640 nM
HLA-A*24:02; [10]
  Kd: 6160 nM

## NEMGLIEKT
HLA-B*44:03; [8]
  Kd: 2000 nM

## VEPWLKNNQF
HLA-B*40:01; [7]
  Kd: 1620 nM
HLA-B*44:03; [7]
  Kd: 162 nM
HLA-B*44:02; [7]
  Kd: 93.7 nM

## TWALCEALTL
HLA-A*23:01; [3]
  Kd: 511 nM
HLA-A*24:02; [3]
  Kd: 114 nM

## LETPNLAERV
HLA-B*40:01; [4]
  Kd: 1010 nM

## MSPALFHAFF
HLA-A*29:02; [9]
  Kd: 513 nM
HLA-A*23:01; [9]
  Kd: 148 nM
HLA-A*24:02; [9]
  Kd: 122 nM

## EEFLDYMPSM
HLA-B*40:01; [7]
  Kd: 142 nM
HLA-B*44:03; [7]
  Kd: 70.8 nM
HLA-A*30:01
  Kd: 2290 nM

## KAELEEGVY
HLA-A*30:02; [7]
  Kd: ≥ 52800 nM

## VEIWTKEGEK
HLA-B*40:01; [7]
  Kd: 754 nM

## AYNVVNKGHF
HLA-A*29:02; [6]
  Kd: 978 nM
HLA-A*30:02; [6]
  Kd: 11200 nM
HLA-A*23:01; [6]
  Kd: 476 nM
HLA-A*26:01; [6]
  Kd: ≥ 37500 nM
HLA-A*01:01 [1]; [6]
  Kd: ≥ 55200 nM
HLA-A*24:02; [6]
  Kd: 316 nM

## ALGKSEFQIY
HLA-A*30:02; [3]
  Kd: ≥ 69700 nM
HLA-A*01:01 [1]; [3]
  Kd: 1540 nM

## FETTMRGAKR
HLA-B*40:01; [3]
  Kd: 3580 nM

## FWITAIYVF
HLA-A*29:02; [6]
  Kd: 26.9 nM
HLA-A*30:02; [6]
  Kd: 22.8 nM
HLA-A*23:01; [6]
  Kd: 163 nM
HLA-A*26:01; [6]
  Kd: 547 nM
HLA-A*01:01 [1]; [6]
  Kd: 629 nM
HLA-A*24:02; [6]
  Kd: 853 nM

## SYSMCTGKF
HLA-A*23:01; [3]
  Kd: 142 nM
HLA-A*24:02; [3]
  Kd: 108 nM

## IYQPESQKF
HLA-A*29:02; [11]
  Kd: 412 nM
HLA-A*23:01; [11]
  Kd: 53.4 nM
HLA-A*24:02; [11]
  Kd: 33.5 nM

## VFRTSTPRVV
HLA-A*29:02; [12]
  Kd: ≥ 71400 nM
HLA-A*30:02; [12]
  Kd: 6350 nM
HLA-A*23:01; [12]
  Kd: ≥ 70000 nM
HLA-A*26:01; [12]
  Kd: ≥ 69700 nM
HLA-A*01:01 [1]; [12]
  Kd: ≥ 70400 nM
HLA-A*24:02; [12]
  Kd: ≥ 70300 nM

## TEKDSPVNI
HLA-B*44:02; [3]
  Kd: 587 nM

## IYVILTILTI
HLA-A*23:01; [8]
  Kd: 11.8 nM
HLA-A*24:02; [8]
  Kd: 48.6 nM

## AQIMEVTARW
HLA-B*44:03; [4]
  Kd: 104 nM
HLA-B*44:02; [4]
  Kd: 156 nM

## KEGTFHTMW
HLA-B*44:03; [3]
  Kd: 47 nM
HLA-B*44:02; [3]
  Kd: 102 nM

## ASEFSSLPSY
HLA-A*29:02; [6]
  Kd: 102 nM
HLA-A*30:02; [6]
  Kd: 47.4 nM
HLA-A*23:01; [6]
  Kd: ≥ 70000 nM
HLA-A*26:01; [6]
  Kd: 11900 nM
HLA-A*01:01 [1]; [6]
  Kd: 14.1 nM
HLA-A*24:02; [6]
  Kd: ≥ 70300 nM

## LWYAQIQPHW
HLA-A*23:01; [3]
  Kd: 203 nM
HLA-A*24:02; [3]
  Kd: 13.1 nM

## GTDSGFAAY
HLA-A*29:02; [6]
  Kd: 52.9 nM
HLA-A*30:02; [6]
  Kd: 15.7 nM
HLA-A*23:01; [6]
  Kd: ≥ 77800 nM
HLA-A*26:01; [6]
  Kd: 2350 nM
HLA-A*24:02; [6]
  Kd: ≥ 77600 nM
HLA-B*58:01
  Kd: 11600 nM
HLA-A*03:01
  Kd: 714 nM
HLA-A*11:01
  Kd: 103 nM
HLA-A*01:01 [2]
  Kd: 13 nM

## EPSKGWKNW
HLA-B*53:01; [8]
  Kd: 608 nM
